Substrate in series [1]: O=C1C[C@@H](c2ccc(O)cc2)Oc2cc(O)cc(O)c21
Description: purified protein. To be noted: CYP:Pdx:PdR 1:8:2 (P. putida redox partners; CYP 1 µM), 500 µM NADH, phosphate buffer; 3'-hydroxylation.

Substrate in series [2]: O=c1cc(-c2ccc(O)cc2)oc2cc(O)cc(O)c12
Description: purified protein. To be noted: CYP:Pdx:PdR 1:8:2 (P. putida redox partners; CYP 1 µM), 500 µM NADH, phosphate buffer; 3'-hydroxylation.

From paper PMC9655578 come the findings set out here.

B1: CYP101D5 (Sphingomonas echinoides) (protein)
chain: MSAAEEIHTPRPAHVPADRVVELDMYNPQGIEKGYLEAWTSLQTADLPSMVWTPLNGGHWIATRGELIQDIYCDPDHFSSHVIFIPKAAGEKYAMVPSKMDPPEHRPYREVVDKGLNLRAIREREPAVRAHAIALIEAFADKGHCDFVEEFSGEFPIRVFMMMADLPMEDSPKLRAFAAGMTRPEGNTPTEMADALDRANRSFFDYVSPIIDARMGGDGTDILTLSINSQVNGAPMEREKLLGMVSLLLLAGLDTVTNFLNMTMDYLGRHPDKVRELTENPTEIRRGVEELFRRFPLVAAARMVAHDVERDGVELKQGEMVLLPTALHGLDPRVNADPWEVDFQRKRPAHSTFGNGPHRCAGLHLARLETTVMLEEWLKRIPTFRVVPGTGPTYHSGVVASVDGVRLEW
For orientation: Km means the concentration of substrate that gives half-maximal velocity. For orientation: kcat means the maximal rate divided by the concentration of active sites. Regarding B1, in the series “purified protein [1]”, the Km was determined as 26.39 ± 2.23 µM and the kcat came to 0.0195 s⁻¹. Also, in the series “purified protein [2]”, the Km turned out to be 46.28 ± 4.88 µM and the kcat came to 0.0138 s⁻¹.
